Test results taken from the supplement of paper PMC7125110.
± gives the standard error. For part of these data: Fewer inactive variants are shown than the library holds.

B1: glmS ribozyme (parent)
chain: AUAAAAGCGCCAGAACUACAGAAAUGUAGUUGACGAGGAGGAGGUUUAUCGAAUUUUCGGCGGAUGCCUCCAAA

Legend:
Conditions in all cases: with glucosamine-6-phosphate
[1] = variants of: B1; assay: kcat; higher = faster cleavage; RNA array
Summary of the method: (§1)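 Ribozyme variants carrying barcodes were transcribed in situ on sequenced MiSeq chips by E. coli RNA polymerase and tracked at 37 °C with a hybridised Cy3 probe. They were exposed to 40 μM to 10 mM glucosamine-6-phosphate in HEPES/KCl/Mg(OAc)2 buffer. kobs came from exponential decay fits of normalised per-tile medians, and kcat and KM from weighted Michaelis–Menten fits.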

[2] = variants of: B1; assay: KM; higher = weaker cofactor use; RNA array
Summary of the method: as §1

[3] = variants of: B1; assay: self-cleavage kobs at 160 uM GlcN6P; higher = faster cleavage; RNA array
Summary of the method: as §1

[4] = variants of: B1; assay: self-cleavage kobs at 640 uM GlcN6P; higher = faster cleavage; RNA array
Summary of the method: as §1

[5] = variants of: B1; assay: self-cleavage kobs at 2500 uM GlcN6P; higher = faster cleavage; RNA array
Summary of the method: as §1

[6] = variants of: B1; assay: self-cleavage kobs at 10000 uM GlcN6P; higher = faster cleavage; RNA array
Summary of the method: as §1

[7] = variants of: B1; assay: self-cleavage kobs at 40 uM GlcN6P; higher = faster cleavage; RNA array
Summary of the method: as §1

Variant | kcat [1] [s⁻¹] | KM [2] [mM] | self-cleavage kobs at 160 uM GlcN6P [3] [s⁻¹] | self-cleavage kobs at 640 uM GlcN6P [4] [s⁻¹] | self-cleavage kobs at 2500 uM GlcN6P [5] [s⁻¹] | self-cleavage kobs at 10000 uM GlcN6P [6] [s⁻¹] | self-cleavage kobs at 40 uM GlcN6P [7] [s⁻¹]
A12C U46A | 0.00133 ± 0.00029 | 2.44 ± 0.9 | 0.000101 ± 2.8e-05 | 0.000302 ± 4.8e-05 | 0.000533 ± 9.6e-05 | 0.00122 ± 0.00017 | 
A12C U46G | 0.00332 ± 0.00078 | 1.95 ± 0.6 | 0.000221 ± 3.6e-05 | 0.000761 ± 0.00012 | 0.002 ± 0.00032 | 0.00278 ± 0.00064 | 8.74e-05 ± 1.3e-05
A12G A14G | 0.00308 ± 0.00041 | 4.77 ± 0.95 | 8.41e-05 ± 1.3e-05 | 0.000405 ± 4.5e-05 | 0.00121 ± 0.00015 | 0.00203 ± 0.00016 | 2.51e-05 ± 6.2e-06
A12G U56G | 0.000904 ± 9.3e-05 | 6.61 ± 0.95 |  | 8.35e-05 ± 8.6e-06 | 0.00024 ± 2.2e-05 | 0.000553 ± 5.7e-05 | 
A12C C68A | 2.22e-05 ± 4.9e-06 |  | < 1e-05 |  | 2.42e-05 ± 7.9e-06 |  | < 1e-05
A12C G44A A53U | 0.000479 ± 4.3e-05 | 4.57 ± 0.53 |  | 5.92e-05 ± 1.6e-05 | 0.000169 ± 4.4e-05 |  | 
A12G G63C | < 1e-05 |  | < 1e-05 |  |  | < 1e-05 | 
A12C G37U | < 1e-05 |  |  |  |  |  | < 1e-05
G13C C67U | 4.46e-05 ± 7.3e-06 |  |  |  | 4.34e-05 ± 1.3e-05 | 4.04e-05 ± 7.8e-06 | 
G13C U30C A52G | 1.64e-05 ± 4.9e-06 |  |  |  |  |  | 
A12U U31G U47C | 0.000915 ± 0.00036 |  |  | 0.000923 ± 0.00024 | 0.00136 ± 0.00036 | 0.000748 ± 0.00013 | 
A12U G32A | 0.000902 ± 5.6e-05 | 2.11 ± 0.2 | 6.52e-05 ± 9.5e-06 | 0.000203 ± 2.1e-05 | 0.000498 ± 5.1e-05 | 0.000735 ± 0.00013 | 
A12U A15U | 0.0118 ± 0.0023 | 1.19 ± 0.32 | 0.0011 ± 0.00016 | 0.00509 ± 0.00065 | 0.00905 ± 0.0015 | 0.00986 ± 0.0013 | 0.000433 ± 4.6e-05
A12C G13A | 0.000473 ± 0.00016 |  |  | 6.42e-05 ± 1.2e-05 | 0.000302 ± 5.1e-05 | 0.00032 ± 5.7e-05 | 
G13C G40C | 4.48e-05 ± 2e-05 |  | < 1e-05 |  |  |  | < 1e-05
A12C G38U | < 1e-05 | 1.28 ± 0.39 |  |  |  |  | 
A12C G38C | 1.42e-05 ± 5.2e-06 |  |  |  |  |  | 
G13A U54A | 0.000832 ± 0.00029 |  | 5.51e-05 ± 1.6e-05 | 0.000147 ± 3.8e-05 | 0.000299 ± 5.6e-05 | 0.000709 ± 0.0001 | 5.62e-05 ± 2.4e-05

Variant | kcat [1] [s⁻¹] | KM [2] [mM] | self-cleavage kobs at 160 uM GlcN6P [3] [s⁻¹] | self-cleavage kobs at 640 uM GlcN6P [4] [s⁻¹] | self-cleavage kobs at 2500 uM GlcN6P [5] [s⁻¹] | self-cleavage kobs at 10000 uM GlcN6P [6] [s⁻¹] | self-cleavage kobs at 40 uM GlcN6P [7] [s⁻¹]
G13A U54G | 0.000682 ± 7.9e-05 | 2.54 ± 0.55 | 5.52e-05 ± 1.8e-05 | 0.000123 ± 2.4e-05 | 0.000363 ± 6.1e-05 | 0.000537 ± 7.4e-05 | 
G13C G29U | 0.000169 ± 1.6e-05 | 3.7 ± 0.71 |  | 3.22e-05 ± 1.3e-05 | 6.58e-05 ± 8.4e-06 | 0.000125 ± 1.6e-05 | 
A12C A52U | 0.000397 ± 5.1e-05 | 2.49 ± 0.57 |  | 8.66e-05 ± 8.4e-06 | 0.000188 ± 1.7e-05 | 0.000329 ± 3.4e-05 | 
A12U G37A G40C | 0.00099 ± 0.00024 | 4.22 ± 1.4 | 2.74e-05 ± 1.2e-05 | 0.000134 ± 1.7e-05 | 0.000386 ± 9.8e-05 | 0.000686 ± 0.00012 | 
A12C U45C | 0.00344 ± 0.0011 | 7.28 ± 3 | 5.84e-05 ± 2.1e-05 | 0.000289 ± 7.9e-05 | 0.000907 ± 0.00016 | 0.00194 ± 0.00049 | 3e-05 ± 1.2e-05
A12C U49C | < 1e-05 |  |  |  |  | < 1e-05 | 
G13A U56A | 0.000767 ± 0.0001 | 3.96 ± 0.75 | 2.49e-05 ± 1e-05 | 0.000106 ± 1.3e-05 | 0.000312 ± 3.9e-05 | 0.000519 ± 0.00011 | 
A12U U54G | 0.0434 ± 0.021 |  | 0.00452 ± 0.00078 | 0.0495 ± 0.012 | 0.0405 ± 0.019 | 0.0363 ± 0.0092 | 0.00183 ± 0.00035
A12C C58A | 0.000734 ± 2.1e-05 |  |  |  | 0.000104 ± 1.8e-05 | 0.000291 ± 4.6e-05 | 
A12C C58U | 0.000159 ± 1.6e-05 | 6.36 ± 1.2 |  |  | 4.66e-05 ± 9.5e-06 | 9.68e-05 ± 1.2e-05 | 
G13A U45G | 8.96e-05 ± 7.9e-06 | 4.31 ± 0.84 |  |  | 3.13e-05 ± 8.3e-06 | 6.32e-05 ± 1e-05 | 
A12G A52G A53G | 2.52e-05 ± 7.9e-06 |  |  |  |  |  | 
A12C G13U C71G | 1.5e-05 ± 5.4e-06 |  |  |  |  |  | 
A12U A64C | 0.000692 ± 7.8e-05 | 3.58 ± 0.66 | 4.03e-05 ± 1.6e-05 | 0.000107 ± 1.6e-05 | 0.000264 ± 3.9e-05 | 0.000531 ± 7.6e-05 | 
A12U A64U | 0.00027 ± 2.8e-05 | 2.42 ± 0.54 |  | 5.21e-05 ± 5.8e-06 | 0.000168 ± 1.8e-05 | 0.000211 ± 1.4e-05 | 
G13C U31C G32U U65G C67U | 6.88e-05 ± 4.5e-06 | 3.04 ± 0.64 |  |  |  | 5.26e-05 ± 1.4e-05 | 
A12C G66C C70A | 8.64e-05 ± 2.7e-05 |  | 0.000157 ± 5.7e-05 | 3.9e-05 ± 1.8e-05 | 0.00011 ± 3.2e-05 | 8.13e-05 ± 1.6e-05 | 
